Experiments:
[1] = molecular target: α subunit of the chimeric Gi protein fused to TagRFP
[2] = molecular target: α subunit of the chimeric Gi protein fused to TagRFP; assay: FRET or BRET; sensitized-emission FRET in live HeLa cells 2 days after co-transfection; donor EGFP at the C-terminus of LANCL2 forms, acceptor TagRFP at the N-terminus of the chimeric Gi α subunit; apparent FRET efficiency in plasmamembrane or whole-cell ROIs

[cAMP]i in HeLa cells overexpressing LANCL2-GFP, 30 s after 5 μM ABA, over basal, unstimulated values [1]: 170%
B1: LANCL2 fused to EGFP (receptor)
chain: MGETMSKRLKLHLGGEAEMEERAFVNPFPDYEAAAGALLASGAAEETGCVRPPATTDEPGLPFHQDGKIIHNFIRRIQTKIKDLLQQMEEGLKTADPHDCSAYTGWTGIALLYLQLYRVTCDQTYLLRSLDYVKRTLRNLNGRRVTFLCGDAGPLAVGAVIYHKLRSDCESQECVTKLLQLQRSVVCQESDLPDELLYGRAGYLYALLYLNTEIGPGTVCESAIKEVVNAIIESGKTLSREERKTERCPLLYQWHRKQYVGAAHGMAGIYYMLMQPAAKVDQETLTEMVKPSIDYVRHKKFRSGNYPSSLSNETDRLVHWCHGAPGVIHMLMQAYKVFKEEKYLKEAMECSDVIWQRGLLRKGYGICHGTAGNGYSFLSLYRLTQDKKYLYRACKFAEWCLDYGAHGCRIPDRPYSLFEGMAGAIHFLSDVLGPETSRFPAFELDSSKRD
modifications: N-terminal glycine myristoylation
apparent FRET efficiency (plasmamembrane ROIs) [2]: 20% | apparent FRET efficiency (whole-cell regions) [2]: 20%

Source: publication PMC4879523
